Laboratory results as given in patent US20230220084A1 (DRAGONFLY THERAPEUTICS, published 2023).
Where a chain is given by its changes, count along the chain named.

Assays:
cCLEC12A-His [1] = biological target: T1, cCLEC12A-His (cynomolgus monkey, UniProt A0A2K5WXQ4 71-271); assay: SPR, purified murine mAb, Cyno CLEC12A-His
T1 construct: Recombinant His-tagged cynomolgus CLEC12A; also called Cyno CLEC12A-His; recombinant cyno CLEC12A
T1 sequence: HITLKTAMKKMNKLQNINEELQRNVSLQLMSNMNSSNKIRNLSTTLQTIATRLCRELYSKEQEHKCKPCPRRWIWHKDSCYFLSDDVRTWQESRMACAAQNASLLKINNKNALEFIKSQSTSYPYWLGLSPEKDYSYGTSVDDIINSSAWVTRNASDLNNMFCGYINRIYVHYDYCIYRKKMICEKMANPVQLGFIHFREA

[2] = biological target: T2, hCLEC12A-His fusion protein (human, UniProt Q5QGZ9 65-265, limits assumed); assay: SPR, purified murine mAb
T2 construct: Recombinant His-tagged human CLEC12A; also called Human CLEC12A-His; recombinant human CLEC12A
T2 sequence (looked up): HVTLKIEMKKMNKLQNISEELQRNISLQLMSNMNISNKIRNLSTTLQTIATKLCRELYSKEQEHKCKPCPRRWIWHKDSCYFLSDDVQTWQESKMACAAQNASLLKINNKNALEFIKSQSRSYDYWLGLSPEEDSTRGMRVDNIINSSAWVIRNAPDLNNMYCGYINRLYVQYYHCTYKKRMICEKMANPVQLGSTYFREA

[3] = biological target: T3, human CLEC12A expressed on cells (human, UniProt Q5QGZ9 1-265); assay: flow cytometry, PL21 cells
T3 construct: whole, on cells; also called RMA-hCLEC12A; hCLEC12A+Ba/F3
T3 sequence (looked up): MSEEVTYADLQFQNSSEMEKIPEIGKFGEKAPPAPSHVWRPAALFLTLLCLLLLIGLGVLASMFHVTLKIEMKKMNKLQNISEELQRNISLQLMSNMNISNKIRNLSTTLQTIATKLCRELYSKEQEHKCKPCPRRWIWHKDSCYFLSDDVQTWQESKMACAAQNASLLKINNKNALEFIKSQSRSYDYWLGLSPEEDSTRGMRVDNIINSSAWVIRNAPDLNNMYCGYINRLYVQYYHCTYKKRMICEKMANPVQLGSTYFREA

[4] = biological target: T2, hCLEC12A-His fusion protein; assay: SPR screening
[5] = biological target: T2, hCLEC12A-His fusion protein; assay: SPR, purified murine mAb, Human CLEC12A-His
De-sialylated hCLEC12A = biological target: T4, De-sialylated hCLEC12A (human, UniProt Q5QGZ9 65-265, limits assumed, glycans de-sialylated); assay: SPR, analyte de-sialylated hCLEC12A
T4 construct: Same protein as m1 after removal of sialic acid; also called de-sialylated version of hCLEC12A
T4 sequence (looked up): T2 sequence (looked up)

[6] = biological target: T2, hCLEC12A-His fusion protein; assay: SPR screening, fully purified murine mAb
[7] = biological target: T2, hCLEC12A-His fusion protein; assay: SPR, analyte glycosylated hCLEC12A
De-glycosylated hCLEC12A = biological target: T5, De-glycosylated hCLEC12A (human, UniProt Q5QGZ9 65-265, limits assumed, N-glycans removed with PNGase); assay: SPR, analyte de-glycosylated hCLEC12A
T5 construct: Same protein as m1 after PNGase treatment; also called PNGase-treated hCLEC12A; deglycosylated version of hCLEC12A
T5 sequence (looked up): T2 sequence (looked up)

cCLEC12A-His [8] = biological target: T1, cCLEC12A-His; assay: SPR, purified murine mAb
[9] = biological target: T2, hCLEC12A-His fusion protein; assay: yeast display flow cytometry with hCLEC12A-his (PE-A against FITC-A)
[10] = biological target: T2, hCLEC12A-His fusion protein; assay: SPR 37 C, two-state fit, ka1; ka1 of two-state fit, 37 C
[11] = biological target: T2, hCLEC12A-His fusion protein; assay: SPR 37 C, two-state fit, kd2
[12] = biological target: T2, hCLEC12A-His fusion protein; assay: SPR 37 C, two-state fit, kd1; kd1 of two-state fit, 37 C
[13] = biological target: T2, hCLEC12A-His fusion protein; assay: SPR 37 C, two-state fit; overall KD of two-state fit, 37 C
[14] = biological target: T2, hCLEC12A-His fusion protein; assay: yeast display flow cytometry with hCLEC12A-his (PE-A against FITC-A); remark: listed apart in the source
[15] = biological target: T2, hCLEC12A-His fusion protein; assay: yeast display, flow cytometry

B1: 9F11.B7 (antibody, V domains shown)
VH: EVQLQESGGGLVQPGGSRKLSCAASGFTFNSFGMHWVRQAPEKGLEWVAFISSGSTSIYYANTVKGRFTISRDNPKNTLFLQMTSLRSEDTAMYYCARDGYPTGGAMDYWGQGTSVTVSS
VL: DIKMTQSPSSMYASLGERVTITCKASQDIYNYLSWFQLKPGKSPRPLIYRANILVSGVPSKFSGSGSGQDYSLTINSLEYEDLGIYYCLQFDAFPFTFGSGTKLEIK
notes: Murine mAb purified from the hybridoma subclone
binding result (cCLEC12A-His [1]): no binding | Kd [2]: 1.4 nM | koff [2]: 0.00157 s⁻¹ | kon [2]: 1.14e+06 M⁻¹ s⁻¹ | EC50 [3]: 0.56 nM | Max MFI [3]: 217 MFI

B2: m9F11-hIgG1 (antibody, V domains shown)
VH: B1 VH
VL: B1 VL
notes: also called chimeric parent mouse 9F11.B7 mAb
Kd [4]: 1.07 nM | koff [4]: 0.00102 s⁻¹ | kon [4]: 950000 M⁻¹ s⁻¹

B3: Genentech-h6E7 (antibody, V domains shown)
VH: EVQLVQSGAEVKKPGASVKVSCKASGYSFTDYYMHWVRQAPGQGLEWIGRINPYNGAAFYSQNFKDRVTLTVDTSTSTAYLELSSLRSEDTAVYYCAIERGADLEGYAMDYWGQGTLVTVSS
VL: DIQMTQSPSSLSASVGDRVTITCRASQSVSTSSYNYMHWYQQKPGKPPKLLIKYASNLESGVPSRFSGSGSGTDFTLTISSLQPEDFATYYCQHSWEIPLTFGQGTKVEIK
EC50 [3]: 5 nM | Max MFI [3]: 265 MFI

B4: 9E4.B7 (antibody, V domains shown)
VH: EVQLQESGAELMKPGASVKISCRTTGYTFSTYWIEWVKQRPGRGPEWIGELFPGNSDTTLNEKFTGKATFTADSSSNTAYMQLSSLTSEDSAVYYCARSGYYGSSLDYWGQGTTLTVSS
VL: GIVMTQSPASLSASVGETVTITCRAGENIHSYLAWYQQKQGKSPQLLVYNAKTLAEGVPSRFSGSGSGTQFSLKINSLQPEDFGSYYCQHHYGTPRTFGGGTKLEIK
notes: as for B1
binding result (cCLEC12A-His [1]): no binding | EC50 [3]: 0.64 nM | Max MFI [3]: 186 MFI

B5: 13E1.A4 (antibody, V domains shown)
VH: EVQLQESGPELEKPGASVRISCKASGYSFTAYNMNWVKQSNGKSLEWIGNIDPSYGDATYNQKFKGKATLTVDKSSSTAYMQLKSLTSEDSAVYYCARDNYYGSGYFDYWGQGTTLTVSS
VL: SVLMTQTPLSLPVSLGDRASISCRSSQGIVHINGNTYLEWYLQKPGQSPKLLIYKVSNRFSGVPDRFSGSGSGTDFTLKISRVEAEDLGVYYCFQGSHVPWTFGGGTKLEIK
notes: as for B1
binding result [5]: binds

B6: Merus-CLL1 (antibody, V domains shown)
VH: EVQLVQSGAEVKKPGASVKVSCKASGYTFTSYYMHWVRQAPGQGLEWMGIINPSGGSTSYAQKFQGRVTMTRDTSTSTVYMELSSLRSEDTAVYYCARGNYGDEFDYWGQGTLVTVSS
VL: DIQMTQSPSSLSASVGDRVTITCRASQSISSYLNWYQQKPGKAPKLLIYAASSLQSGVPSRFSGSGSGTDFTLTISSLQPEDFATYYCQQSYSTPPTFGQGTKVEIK
EC50 [3]: 2.02 nM | Max MFI [3]: 201 MFI

B7: 16B8.C8 (antibody, V domains shown)
VH: EVQLQESGPGLVQPSQSLSITCTVSGFSLTNYGLHWVRQSPGKGLEWLGVIWSGGKTDYNTPFKSRLSISKDISKNQVFFKMNSLQPNDTAIYFCAKYDYDDSLDYWGQGTSVTVSS
VL: DIQMNQSPSSLSASLGDTIAITCHASQNINFWLSWYQQKPGNIPKLLIYEASNLHTGVPSRFSGSGSGTRFTLTISSLQPEDIATYYCQQSHSYPLTFGQGTKLEIK
notes: Murine mAb purified from the hybridoma subclone; also called Murine 16B8 mAb; Murine 16B8. mAb
Kd (De-sialylated hCLEC12A): 0.007 nM | koff (De-sialylated hCLEC12A): 3.62e-05 s⁻¹ | kon (De-sialylated hCLEC12A): 5.25e+06 M⁻¹ s⁻¹ | Kd [6]: 0.008 nM | koff [6]: 2.35e-05 s⁻¹ | kon [6]: 3.03e+06 M⁻¹ s⁻¹ | Kd [7]: 0.012 nM | koff [7]: 4.7e-05 s⁻¹ | kon [7]: 4.05e+06 M⁻¹ s⁻¹ | Kd (De-glycosylated hCLEC12A): 0.011 nM | koff (De-glycosylated hCLEC12A): 4.45e-05 s⁻¹ | kon (De-glycosylated hCLEC12A): 4.26e+06 M⁻¹ s⁻¹ | binding result (cCLEC12A-His [1]): no binding | Kd [2]: 0.01 nM | koff [2]: 4.44e-05 s⁻¹ | kon [2]: 4.05e+06 M⁻¹ s⁻¹ | EC50 [3]: 0.18 nM | Max MFI [3]: 300 MFI

B8: 15A10.G8 (antibody, V domains shown)
VH: EVQLQESGAELVRSGASIKLSCAASAFNIKDYFIHWVRQRPDQGLEWIGWIDPENDDTEYAPKFQDKATMTADTSSNTAYLQLSSLTSADTAVYYCNALWSRGGYFDYWGQGTTLTVSS
VL: EVLLTQSPAIIAASPGEKVTITCSARSSVSYMSWYQQKPGSSPKIWIYGISKLASGVPARFSGSGSGTYFSFTINNLEAEDVATYYCQQRSYYPFTFGSGTKLEIK
notes: as for B1
Kd [2]: 1.6 nM | koff [2]: 0.000494 s⁻¹ | kon [2]: 301000 M⁻¹ s⁻¹ | Kd (cCLEC12A-His [8]): 3.3 nM | koff (cCLEC12A-His [8]): 0.000659 s⁻¹ | kon (cCLEC12A-His [8]): 196000 M⁻¹ s⁻¹

B9: parent scFv (YDYDDSLDY) (SEQ ID NO:5) of F3′-1602, yeast display (scFv)
scFv: QLQLQESGPGLVKPSETLSLTCTVSGFSLTNYGLHWIRQPPGKCLEWIGVIWSGGKTDYNPSLKSRVTISKDTSKNQFSLKLSSVQAADTAVYYCAKYDYDDSLDYWGQGTLVTVSSGGGGSGGGGSGGGGSGGGGSDIQMTQSPSSLSASVGDRVTITCHASQNINFWLSWYQQKPGKAPKLLIYEASNLHTGVPSRFSGSGSGTRFTLTISSLQPEDIATYYCQQSHSYPLTFGCGTKLEIK
binding result [9]: binds

B10: AB0053 (bispecific antibody)
chain: B9 scFv with S103A
kon [10]: 1.63e+06 M⁻¹ s⁻¹ | koff [11]: 0.000949 s⁻¹ | koff [12]: 0.0157 s⁻¹ | Kd [13]: 2.41 nM

B11: scFv CDRH3 variant YDYDESLDY (SEQ ID NO:146), yeast display (scFv)
scFv: B9 scFv with D102E
notes: As m72
binding result [14]: no binding

B12: scFv CDRH3 variant YDYDDTLDY (SEQ ID NO:145), yeast display (scFv)
scFv: B9 scFv with S103T
notes: As m72
binding result [14]: no binding

B13: scFv CDRH3 variant YDYDDILDY (SEQ ID NO:142), yeast display (scFv)
scFv: B9 scFv with S103I
notes: As m72
binding result [15]: binds

B14: scFv CDRH3 variant YDYDDALDY (SEQ ID NO:141), yeast display (scFv)
scFv: B9 scFv with S103A
binding result [15]: binds

B15: scFv CDRH3 variant YDYDDLLDY (SEQ ID NO:143), yeast display (scFv)
scFv: B9 scFv with S103L
notes: As m72
binding result [15]: binds

B16: scFv CDRH3 variant YDYDDVLDY (SEQ ID NO:144), yeast display (scFv)
scFv: B9 scFv with S103V
notes: As m72
binding result [14]: no binding
